From PMC12201654, “Circovirus Rep evades immune restriction by disrupting cGAS oligomerization and phase separation” (PLOS Pathogens, 2025) come the findings set out here.

One may read the Kd as a measure of binding affinity in units of concentration.

Series [1] concerns the molecule itself. The series can be described thus: cross-linking; recombinant pcGAS (5 ug), bound to ISD45 dsDNA, alone or with recombinant Rep proteins (5, 10, 15 ug) in cGAMP synthesis buffer (20 mM HEPES pH 7.5, 5 mM MgCl2, 2 mM ATP, 2 mM GTP), 25°C 15 min, then DSS 0.5 mM for 10 min; non-reducing loading buffer, immunoblot. On the technique in general: A western blot detects proteins with antibodies after separation by electrophoresis.

Another series addresses T1, pcGAS full length (pig (porcine), UniProt I3LM39 1-495).
T1 sequence: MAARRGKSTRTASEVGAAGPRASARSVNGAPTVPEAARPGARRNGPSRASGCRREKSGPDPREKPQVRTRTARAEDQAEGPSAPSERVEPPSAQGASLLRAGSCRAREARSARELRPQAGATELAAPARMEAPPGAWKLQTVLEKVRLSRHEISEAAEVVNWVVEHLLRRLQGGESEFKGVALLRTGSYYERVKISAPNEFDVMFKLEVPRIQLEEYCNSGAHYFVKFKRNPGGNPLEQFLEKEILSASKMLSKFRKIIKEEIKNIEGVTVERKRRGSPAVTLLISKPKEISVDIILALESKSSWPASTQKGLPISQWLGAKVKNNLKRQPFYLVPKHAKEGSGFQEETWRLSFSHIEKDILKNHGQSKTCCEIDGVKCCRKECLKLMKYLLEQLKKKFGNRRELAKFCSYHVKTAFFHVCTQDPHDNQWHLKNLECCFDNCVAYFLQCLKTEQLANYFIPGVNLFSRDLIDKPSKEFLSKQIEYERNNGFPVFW
The series can be described thus: MST; Pull-down: IP lysis buffer 4 h at 4 C (lysates) or NP-40 buffer 6 h at 4 C (recombinant), biotin-HSV60 40 ug/mL; MST buffer not given; phase separation 50-300 mM NaCl. The settings on record: protein: recombinant; label: Cy5; blunt.

A further series deals with T2, PCV2a Rep (Porcine circovirus 2a, UniProt Q77Q74 1-314).
T2 sequence: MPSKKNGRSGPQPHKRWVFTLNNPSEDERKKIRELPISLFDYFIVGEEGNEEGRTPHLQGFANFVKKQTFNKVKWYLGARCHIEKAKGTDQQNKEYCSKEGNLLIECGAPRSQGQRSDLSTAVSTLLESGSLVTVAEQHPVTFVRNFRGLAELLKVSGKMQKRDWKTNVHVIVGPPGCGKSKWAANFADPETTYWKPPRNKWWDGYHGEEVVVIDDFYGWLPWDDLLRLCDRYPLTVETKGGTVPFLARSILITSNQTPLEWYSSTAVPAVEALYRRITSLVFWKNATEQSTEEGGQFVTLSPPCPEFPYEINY
The series is described as above. The conditions noted are these: protein: recombinant; tags: C-terminal Myc; His6-SUMO removed per Methods; label: Cy5; blunt.

A further series addresses SUMO-PCV3 Rep-Myc (Porcine circovirus 3, UniProt A0ACM8RHE8 1-296). The series can be described thus: pull-down; Pull-down: IP lysis buffer 4 h at 4 C (lysates) or NP-40 buffer 6 h at 4 C (recombinant), biotin-HSV60 40 ug/mL; MST buffer not given; phase separation 50-300 mM NaCl. The settings on record: protein: recombinant; tags: His6-SUMO, C-terminal Myc; label: 5'-biotin; blunt.

For the next series, the target named is T3, SUMO-PCV4 Rep-Myc (Porcine circovirus 4, UniProt A0A7M4CFI7 1-296).
T3 sequence: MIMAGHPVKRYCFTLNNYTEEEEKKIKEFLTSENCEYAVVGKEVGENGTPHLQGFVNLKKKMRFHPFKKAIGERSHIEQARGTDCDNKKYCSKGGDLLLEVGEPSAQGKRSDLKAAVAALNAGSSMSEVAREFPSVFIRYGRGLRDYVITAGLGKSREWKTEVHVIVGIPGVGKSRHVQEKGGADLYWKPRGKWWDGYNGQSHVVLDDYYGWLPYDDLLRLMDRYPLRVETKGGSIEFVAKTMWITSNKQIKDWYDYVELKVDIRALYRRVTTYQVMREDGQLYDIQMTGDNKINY
The series is described as above. The settings on record: protein: recombinant; tags: His6-SUMO, C-terminal Myc; label: 5'-biotin; blunt.

B1: porcine cGAS (pcGAS), recombinant full-length protein (natural protein)
chain: T1 sequence
notes: cyclic GMP-AMP synthase (cGAS), porcine, full length; identifier not given; also called porcine cyclic GMP-AMP synthase; pcGAS full length; source: recombinant protein, stored in our laboratory
In the case of B1, in series [1], the binding result is reported as “binds”.

B2: Cy5-HSV60 (dsDNA)
DNA 1: TAAGACACGATGCGATAAAATCTGTTTGTAAAATTTATTAAGGGTACAAATTGCCCTAGC
DNA 2: GCTAGGGCAATTTGTACCCTTAATAAATTTTACAAACAGATTTTATCGCATCGTGTCTTA
For the molecule B2, the equilibrium dissociation constant (Kd) in the series with pcGAS full length worked out at 0.68 µM; with PCV2a Rep, 11.1 µM.

B3: biotin-HSV60 (dsDNA)
DNA 1: B2 DNA 1
DNA 2: B2 DNA 2
Turning to B3, the binding result with SUMO-PCV3 Rep-Myc and in the series with SUMO-PCV4 Rep-Myc was “binds” in each case.
